Reference: paper PMC2535662, “Identification of COUP-TFII Orphan Nuclear Receptor as a Retinoic Acid–Activated Receptor” (PLoS Biology, 2008)
Each block holds one molecule with its values, some of them ahead of it. Where no end group is shown, it is not given here.

What was measured:
COUP-TFII = molecular target: T1, COUP-TFII (Homo sapiens, UniProt P24468, C174S); test: AlphaScreen ligand-dependent coactivator peptide recruitment to purified LBD; also NGFI-A luciferase reporter in COS-7 cells; format: binding
T1 construct: gene NR2F2; LBD (residues 173–414 with C174S mutation), 6X His-GST fusion protein
T1 sequence (P24468 173-414 C174S): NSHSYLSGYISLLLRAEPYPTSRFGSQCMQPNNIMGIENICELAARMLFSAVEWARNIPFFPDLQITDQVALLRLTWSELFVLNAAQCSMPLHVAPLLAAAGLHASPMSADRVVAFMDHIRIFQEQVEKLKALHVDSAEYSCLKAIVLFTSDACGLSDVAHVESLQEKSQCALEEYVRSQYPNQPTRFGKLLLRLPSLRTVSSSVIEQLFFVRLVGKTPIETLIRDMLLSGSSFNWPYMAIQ

[1] = molecular target: full-length COUP-TFII (mouse expression plasmid) (mouse) (UniProt P43135)
[2] = molecular target: the molecule itself; test: crystal structure; ligand-free LBD, no cofactor peptide; hanging drops at 20 °C, well buffer 1.3 M or 1.5 M imidazole pH 5.6 and 1% Pluronic F68; space group C2, one LBD per asymmetric unit, symmetric dimer through crystal packing
[3] = molecular target: T2, 6X His-GST-COUP-TFII LBD fusion protein (human, UniProt P24468 173-414, C174S); test: AlphaScreen or HTRF; approximately 0.4 μM 6X His-GST receptor LBD and 0.1 μM biotinylated peptide, 20 μg/ml donor and acceptor beads; 50 mM MOPS, 50 mM NaF, 50 mM CHAPS, 0.1 mg/ml bovine serum albumin, pH 7.4; with 50 μM 9-cis-retinoic acid; settings: both partners purified
T2 construct: The limits and C174S come from the protein preparation paragraph; also called receptor LBD; source: E. coli BL21 (DE3), purified as a 6X His-GST fusion protein; not shown: 6x Histidine, N-terminal, kept; GST, N-terminal, kept
T2 sequence (looked up): T1 sequence (P24468 173-414 C174S)

[4] = molecular target: COUP-TFII L364A/L365A double mutant (mouse) (UniProt P43135)

Molecule: CC1=C(/C=C/C(C)=C/C=C/C(C)=C/C(=O)O)C(C)(C)CCC1 [ATRA, all-trans-retinoic acid]
EC50 (COUP-TFII): 26 µM

NGFI-A promoter luciferase reporter in COS-7 cells, COUP-TFII cotransfected with SRC-3, relative to COUP-TFII alone [1]: > 2 fold
Molecule: SRC-3 (wild type) (from UniProt Q9Y6Q9 1-1424) (natural protein)

Molecule: CC1=C(/C=C/C(C)=C\C=C\C(C)=C\C(=O)O)C(C)(C)CCC1 [9cRA, 9-cis-retinoic acid]
EC50 (COUP-TFII): 17 µM

B1: human COUP-TFII ligand-binding domain (residues 173–414, C174S), tag cleaved (domain or fragment, UniProt P24468 173-414, looked up)
chain: T1 sequence (P24468 173-414 C174S)
notes: Ligand-free; One LBD per asymmetric unit; The model lacks 13 residues between α1 and α3, 17 residues between α5 and α6, and the C-terminal seven residues; also called COUP-TFII LBD; apo-COUP-TFII; source: E. coli BL21 (DE3), purified (glutathione-sepharose, thrombin cleavage, Ni2+ chelating sepharose); not shown: 6x Histidine, N-terminal, cleaved; GST, N-terminal, cleaved
binding result [2]: binds

binding result [3]: binds
B2: biotinylated SRC3–1 peptide (peptide)
peptide: AENQRGPLESKGHKKLLQLLTSS
modifications: also: biotinylated, position not given here

activation of the NGFI-A promoter luciferase reporter in COS-7 cells, relative to wild-type COUP-TFII [4]: 20%
B3: COUP-TFII L364A/L365A double mutant (natural protein)
chain: MAMVVSTWRDPQDEVPGSQGSQASQAPPVPGPPPGAPHTPQTPGQGGPASTPAQTAAGGQGGPGGPGSDKQQQQQHIECVVCGDKSSGKHYGQFTCEGCKSFFKRSVRRNLSYTCRANRNCPIDQHHRNQCQYCRLKKCLKVGMRREAVQRGRMPPTQPTHGQFALTNGDPLNCHSYLSGYISLLLRAEPYPTSRFGSQCMQPNNIMGIENICELAARMLFSAVEWARNIPFFPDLQITDQVALLRLTWSELFVLNAAQCSMPLHVAPLLAAAGLHASPMSADRVVAFMDHIRIFQEQVEKLKALHVDSAEYSCLKAIVLFTSDACGLSDVAHVESLQEKSQCALEEYVRSQYPNQPTRFGKLAARLPSLRTVSSSVIEQLFFVRLVGKTPIETLIRDMLLSGSSFNWPYMAIQ
